# Laboratory results: the RNAGym collection of RNA variant scans (doi:10.1073/pnas.2313332121)
# This sample holds only a part of the variants without activity.
# B1: TPR 5TU (parent)
# chain: GGAUCUUCUCGAUCUAACAAAAAAGACAAAUCUGCCACAAAGCUUGAGAGCAUCUUCGGAUGCAGAGGCGGCAGCCUUCGGUGGCGCGAUAGCGCCAACGUUCUCAACUAUGACACGCAAAACGCGUGCUCCGUUGAAUGGAGUUUAUCAUG
# Variants of: B1
# Assay: polymerase ribozyme fitness, log enrichment relative to wild type (log ratio); higher = more active; in vitro selection for triplet polymerase activity
# Procedure, shortened: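 Mutant libraries were PCR-built and transcribed for each subunit of a heterodimeric triplet polymerase ribozyme and selected for one round in triplicate at −7 °C, frozen, before gel excision of extended constructs and streptavidin-bead capture. Input and output libraries were Illumina-sequenced, keeping genotypes with ≥10 input reads and ≥1 read per output. Fitness is a logarithmic ratio of genotype to wild-type enrichment, in base 2, using inverse-variance-weighted replicate averages.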
row,Variant,polymerase ribozyme fitness (log ratio)
1,GGAUCUUCUCGAUCUAACAAAAAAGACAAAUCUGCCACAAAGCUUGAGAGCAUCUUCGGAUGCAGAGGCGGCAGCCUUCGGUUGCGCGAUAGUGCGAACGUUCUCAACUAUGACACGCAAAACGCGUGCUCCGUAGAAUGGAGUUUAUCAUG [G83U C93U C96G U135A],-2.89
2,GGAUCUUCUCGAUCUAACAAAAAAGACAAAUCUGCCACAAAGCUUGAGAGCAUCUUCGGAUGCAGAGGCGGCAGCCUUCGGUUGCGCGAUAGCGCCAACGUUCUCAACUAUGACCCGCAAAACGCGUGCUCCGUUGAAUGGAGUUUAUCAUG [G83U A115C],-0.337
3,GGAUCUUCUCGAUCUAACAAAAAAGACAAAUCUGCCACAAAGCUUGAGAGCAUCUUCGGAUGCAGAGGCGGCAGCCUUCGGUUGCGCGAUAGCUACAACGUUCUCAACUAUGACACGCAAAACGCGUGCUCCGUUGAAUGGAGUUUAUCAUG [G83U G94U C95A],-1.62
4,GGAUCUUCUCGAUCUAACAAAAAAGACAAAUCUGCCACAAAGCUUGAGAGCAUCUUCGGAUGCAGAGGCGGCAGCCUUCGGUUGCGCGAUAGCGCCAACGUUGUCAUCUAUGACACGCAAAACGCGUGCUCCGUUGAAUGGAGUUUAUCAUG [G83U C103G A107U],≤ -4.2
5,GGAUCUUCUCGAUCUAACAAAAAAGACAAAUCUGCCACAAAGCUUGAGAGCAUCUUCGGAUGCAGAGGCGGCAGCCUUCGGUUGCGUGCUAGCGCCAACGUUCUCAACUAUGACACGCAAAAAGUGUGCUCCGUUGAAUGGAGUUUAUCAUG [G83U C87U A89C C123A C125U],-1.33
6,GGAUCUUCUCGAUCUAACAAAAAAGACAAAUCUGCCACAAAGCUUGAGAGCAUCUUCGGAUGCAGAGGCGGCAGCCUUCGGUUGCGCGAUAGCGCCAACGUUCUCAACUAUGACACGCAAAACGCGUGCUCUGUUGAAUGGAGUUUAUCAUG [G83U C132U],-1.33
7,GGAUCUUCUCGAUCUAACAAAAAAGACAAAUCUGCCACAAAGCUUGAGAGCAUCUUCGGAUGCAGAGGCGGCAGCCUUCGGUUGCGCGAUAGCACCAACGUUCUCAACUAUGACACGCAAAACGCGUGCUCCGUUGAAUGGAGUUUAUCAUG [G83U G94A],-0.328
8,GGAUCUUCUCGAUCUAACAAAAAAGACAAAUCUGCCACAAAGCUUGAGAGCAUCUUCGGAUGCAGAGGCGGCAGCCUUCGGUUGCGCGAUAGCGUCAACGUUCUCAACUAUGACACGCAAAAUGCGUGCUCCGUUGAAUGGAUUUUAUCAUG [G83U C95U C123U G143U],-3.65
9,GGAUCUUCUCGAUCUAACAAAAAAGACAAAUCUGCCACAAAGCUUGAGAGCAUCUUCGGAUGCAGAGGCGGCAGCCUUCGGUUGCGCGAUAGCGCCAACGUUCUCAACUAUGUCACGCAAAACGCGUGCUCCGUUGAAUGGAGUUUAUCAUG [G83U A113U],-2.14
10,GGAUCUUCUCGAUCUAACAAAAAAGACAAAUCUGCCACAAAGCUUGAGAGCAUCUUCGGAUGCAGAGGCGGCAGCCUUCGGUUGCGCGAUAGCUCCAACGUUCUCAACUAUGACAAGCAAAACGCGUGCUCGGUUGAAUUGAGUUUAUCAUG [G83U G94U C116A C132G G140U],-3.11
11,GGAUCUUCUCGAUCUAACAAAAAAGACAAAUCUGCCACAAAGCUUGAGAGCAUCUUCGGAUGCAGAGGCGGCAGCCUUCGGUUGCGGGAUAGCGCCAAUGUUCUCAACUAUGACACGCAAAACGCGUGCUCCGUUGAAUGGAGUUUAUCAUG [G83U C87G C99U],≤ -4.2
12,GGAUCUUCUCGAUCUAACAAAAAAGACAAAUCUGCCACAAAGCUUGAGAGCAUCUUCGGAUGCAGAGGCGGCAGCCUUCGGUUGCGCGAUAGCGCCAACGUUCUCAACUAUGACACGCAAAACGCGUGCUCCGUUGAAUGGAGUUUAUCGUG [G83U A150G],-3.14
13,GGAUCUUCUCGAUCUAACAAAAAAGACAAAUCUGCCACAAAGCUUGAGAGCAUCUUCGGAUGCAGAGGCGGCAGCCUUCGGUUGCGCGAUAGCGCCAACGUUUUCAACUAUGACACGCAAAACGCGUGCUCCGUUGAAUGGAGUUUAUCAUG [G83U C103U],0.2
14,GGAUCUUCUCGAUCUAACAAAAAAGACAAAUCUGCCACAAAGCUUGAGAGCAUCUUCGGAUGCAGAGGCGGCAGCCUUCGGUUGCGCGAUAGCGCCAACGUUCUCAACUAUUACACGCAAAACGCGUGCUCCGUUGAAUGGAGUUUAUCAUG [G83U G112U],-4
15,GGAUCUUCUCGAUCUAACAAAAAAGACAAAUCUGCCACAAAGCUUGAGAGCAUCUUCGGAUGCAGAGGCGGCAGCCUUCGGUUGCGCGAUAGCGCCAACGUUCUCAACUAUGACACGCAAAACGCGUUCUCCGUUGAAUGGAGUUUAUCAUG [G83U G128U],-3.22
16,GGAUCUUCUCGAUCUAACAAAAAAGACAAAUCUGCCACAAAGCUUGAGAGCAUCUUCGGAUGCAGAGGCGGCAGCCUUCGGUUGCGCGAUAGCGCCAACGUUCUCAACUAUGACACGCAAAACGCGUGCUCCGUUGAAUGGCGUCUAUCAUG [G83U A142C U145C],-3.76
17,GGAUCUUCUCGAUCUAACAAAAAAGACAAAUCUGCCACAAAGCUUGAGAGCAUCUUCGGAUGCAGAGGCGGCAGCCUUCGGUUGCGCGAUAGCGCCACCGUUCUCAACUAUGACGCGCAAAACGCGUGCUCCGUUGAAUGGAGUUUAUCAUG [G83U A98C A115G],-1.62
18,GGAUCUUCUCGAUCUAACAAAAAAGACAAAUCUGCCACAAAGCUUGAGAGCAUCUUCGGAUGCAGAGGCGGCAGCCUUCGGUUGCGCGAUAGCGCCACCGUUCUCAACUAUGACACGCAAAAUGUGUGAUCCGUUGAAUGGAGUUUAUCAUG [G83U A98C C123U C125U C129A],-3.47
19,GGAUCUUCUCGAUCUAACAAAAAAGACAAAUCUGCCACAAAGCUUGAGAGCAUCUUCGGAUGCAGAGGCGGCAGCCUUCGGUUGCGCGAUAGCGCAAACGUUCUCAACUAUGACACGCAAAACGCGUGCUCCGUUGAAUGGAGUUUAUCAUG [G83U C96A],-0.528
